# According to US20240376170A1 (BRIGHT PEAK THERAPEUTICS, published 2024):
# Bridges are numbered along the chain shown (N, C = ends). Primed or numbered codes have the meaning given here. [ ]: non-standard residue; d: D form. 8x polyethylene glycol‑amino = O-(8x polyethylene glycol-amino)-tyrosine, SITE 45; 9x polyethylene glycol‑azido = O-(9x polyethylene glycol-azido)-tyrosine, SITE 42; Ygp = O-(8x polyethylene glycol-amino)-tyrosine (Tyr, amino-capped PEG8); Yn3 = O-(9x polyethylene glycol-azido)-tyrosine (Tyr, azide-capped PEG9); Ygp″ = O-(8x polyethylene glycol-amino)-tyrosine; Yn3″ = O-(9x polyethylene glycol-azido)-tyrosine; PEG4′ = 4x polyethylene glycol; hSer = N[C@@H](CCO)C(=O)O; Nle = CCCC[C@H](N)C(=O)O
# T1: IL-2 receptor βγ complex (human, UniProt P14784 27-551; P31785 23-369)
# T1 sequence (looked up) 1: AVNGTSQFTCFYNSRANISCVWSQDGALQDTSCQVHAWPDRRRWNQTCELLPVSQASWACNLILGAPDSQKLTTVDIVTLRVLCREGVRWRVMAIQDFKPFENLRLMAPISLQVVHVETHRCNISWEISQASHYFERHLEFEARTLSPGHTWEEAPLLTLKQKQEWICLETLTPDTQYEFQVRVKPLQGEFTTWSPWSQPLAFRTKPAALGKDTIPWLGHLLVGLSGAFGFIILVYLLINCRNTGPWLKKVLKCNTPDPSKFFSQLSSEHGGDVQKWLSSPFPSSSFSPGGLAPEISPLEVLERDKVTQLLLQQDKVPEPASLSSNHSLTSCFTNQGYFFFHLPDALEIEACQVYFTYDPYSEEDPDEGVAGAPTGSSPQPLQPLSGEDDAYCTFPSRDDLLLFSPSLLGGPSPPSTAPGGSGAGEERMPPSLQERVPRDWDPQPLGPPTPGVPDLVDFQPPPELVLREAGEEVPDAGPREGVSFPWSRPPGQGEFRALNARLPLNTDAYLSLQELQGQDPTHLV
# T1 sequence (looked up) 2: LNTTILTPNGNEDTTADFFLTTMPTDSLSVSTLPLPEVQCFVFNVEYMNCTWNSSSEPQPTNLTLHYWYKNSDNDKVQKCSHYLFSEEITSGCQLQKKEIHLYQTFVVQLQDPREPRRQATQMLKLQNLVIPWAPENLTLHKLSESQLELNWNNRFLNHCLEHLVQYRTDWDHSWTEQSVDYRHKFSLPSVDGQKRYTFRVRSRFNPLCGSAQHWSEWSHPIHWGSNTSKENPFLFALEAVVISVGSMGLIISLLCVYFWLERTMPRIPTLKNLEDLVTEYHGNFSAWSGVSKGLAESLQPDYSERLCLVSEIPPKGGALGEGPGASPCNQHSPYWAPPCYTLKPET
# Target: T1, IL-2 receptor βγ complex
# Assay: cell-based or functional assay
row,Binder,"Average EC50, pSTAT5 Assay in NK cells [nM]"
1,"CMP-328, uPa cleaved molecule (ligand, ends and bridges not checked; also: after uPa cleavage, remnants of the Lys9–Glu23 peptide linker not given here) APTSSSTKKTQLQLEHLLLDLQEILNGINNYKNPKLTR[Nle]L[hSer][Yn3″]KF[Ygp″][Nle]PKKATELKHLQCLEEELKPLEEVL[hSer]LAQSKNFHLRPRDLISNINVIVLELKGSETTF[hSer]CEYADETATIVEFLNRWITFSQSIISTLT",2.96
2,"CMP-329, MMP2 cleaved molecule (ligand, ends and bridges not checked; also: after MMP2 cleavage, remnants of the Lys9–Glu23 peptide linker not given here) APTSSSTKKTQLQLEHLLLDLQEILNGINNYKNPKLTR[Nle]L[hSer][Yn3″]KF[Ygp″][Nle]PKKATELKHLQCLEEELKPLEEVL[hSer]LAQSKNFHLRPRDLISNINVIVLELKGSETTF[hSer]CEYADETATIVEFLNRWITFSQSIISTLT",0.687
3,"CMP-317 (ligand, bridge N-31; not fully specified (bridges); ends not checked) GSGSGSG[PEG4′]APTSSSTKKTQLQLEHLLLDLQEILNGINNYKNPKLTR[Nle]L[hSer][Yn3]KF[Ygp][Nle]PKKATELKHLQCLEEELKPLEEVL[hSer]LAQSKNFHLRPRDLISNINVIVLELKGSETTF[hSer]CEYADETATIVEFLNRWITFSQSIISTLT",34.1
4,"CMP-328, Matriptase cleaved molecule (ligand, ends and bridges not checked; also: after matriptase cleavage, remnants of the Lys9–Glu23 peptide linker not given here) APTSSSTKKTQLQLEHLLLDLQEILNGINNYKNPKLTR[Nle]L[hSer][Yn3″]KF[Ygp″][Nle]PKKATELKHLQCLEEELKPLEEVL[hSer]LAQSKNFHLRPRDLISNINVIVLELKGSETTF[hSer]CEYADETATIVEFLNRWITFSQSIISTLT",4.28
5,"CMP-328, MMP2 cleaved molecule (ligand, ends and bridges not checked; also: after MMP2 cleavage, remnants of the Lys9–Glu23 peptide linker not given here) APTSSSTKKTQLQLEHLLLDLQEILNGINNYKNPKLTR[Nle]L[hSer][Yn3″]KF[Ygp″][Nle]PKKATELKHLQCLEEELKPLEEVL[hSer]LAQSKNFHLRPRDLISNINVIVLELKGSETTF[hSer]CEYADETATIVEFLNRWITFSQSIISTLT",1.48
6,"CMP-328 (ligand, bridge 9-23; not fully specified (bridges); ends not checked) APTSSSTKKTQLQLEHLLLDLQEILNGINNYKNPKLTR[Nle]L[hSer][Yn3″]KF[Ygp″][Nle]PKKATELKHLQCLEEELKPLEEVL[hSer]LAQSKNFHLRPRDLISNINVIVLELKGSETTF[hSer]CEYADETATIVEFLNRWITFSQSIISTLT",9.23
7,"CMP-329 (ligand, bridge 9-23; not fully specified (bridges); ends not checked) APTSSSTKKTQLQLEHLLLDLQEILNGINNYKNPKLTR[Nle]L[hSer][Yn3″]KF[Ygp″][Nle]PKKATELKHLQCLEEELKPLEEVL[hSer]LAQSKNFHLRPRDLISNINVIVLELKGSETTF[hSer]CEYADETATIVEFLNRWITFSQSIISTLT",20.6

# Results, then the binder that gave them:
row,"Average EC50, pSTAT5 Assay in NK cells [nM]",Binder
1,6.12,"CMP-330, MMP2 cleaved molecule (ligand, not fully specified; also: K9 and E23 side chains attached to another sequence, MMP2-cleaved product, remnants not given here) APTSSSTKKTQLQLEHLLLDLQEILNGINNYKNPKLTR[Nle]L[hSer]Y(9x polyethylene glycol‑azido)KFY(8x polyethylene glycol‑amino)[Nle]PKKATELKHLQCLEEELKPLEEVL[hSer]LAQSKNFHLRPRDLISNINVIVLELKGSETTF[hSer]CEYADETATIVEFLNRWITFSQSIISTLT"
2,14.4,"CMP-329, Matriptase cleaved molecule (ligand, ends and bridges not checked; also: after matriptase cleavage, remnants of the Lys9–Glu23 peptide linker not given here) APTSSSTKKTQLQLEHLLLDLQEILNGINNYKNPKLTR[Nle]L[hSer][Yn3″]KF[Ygp″][Nle]PKKATELKHLQCLEEELKPLEEVL[hSer]LAQSKNFHLRPRDLISNINVIVLELKGSETTF[hSer]CEYADETATIVEFLNRWITFSQSIISTLT"
3,20.3,"CMP-330 (ligand, bridge 9-23; not fully specified (bridges)) APTSSSTKKTQLQLEHLLLDLQEILNGINNYKNPKLTR[Nle]L[hSer]Y(9x polyethylene glycol‑azido)KFY(8x polyethylene glycol‑amino)[Nle]PKKATELKHLQCLEEELKPLEEVL[hSer]LAQSKNFHLRPRDLISNINVIVLELKGSETTF[hSer]CEYADETATIVEFLNRWITFSQSIISTLT"
4,27,"CMP-330, uPa cleaved molecule (ligand, not fully specified; also: Lys9 side chain attached to another sequence, Glu23 side chain attached to another sequence) APTSSSTKKTQLQLEHLLLDLQEILNGINNYKNPKLTR[Nle]L[hSer]Y(9x polyethylene glycol‑azido)KFY(8x polyethylene glycol‑amino)[Nle]PKKATELKHLQCLEEELKPLEEVL[hSer]LAQSKNFHLRPRDLISNINVIVLELKGSETTF[hSer]CEYADETATIVEFLNRWITFSQSIISTLT"
5,18.1,"CMP-329, uPa cleaved molecule (ligand, not fully specified; also: K9 and E23 side chains attached to another sequence, uPa-cleaved product, remnants not given here) APTSSSTKKTQLQLEHLLLDLQEILNGINNYKNPKLTR[Nle]L[hSer]Y(9x polyethylene glycol‑azido)KFY(8x polyethylene glycol‑amino)[Nle]PKKATELKHLQCLEEELKPLEEVL[hSer]LAQSKNFHLRPRDLISNINVIVLELKGSETTF[hSer]CEYADETATIVEFLNRWITFSQSIISTLT"
6,16.4,"CMP-330, Matriptase cleaved molecule (ligand, not fully specified; also: K9 and E23 side chains attached to another sequence, matriptase-cleaved product, remnants not given here) APTSSSTKKTQLQLEHLLLDLQEILNGINNYKNPKLTR[Nle]L[hSer]Y(9x polyethylene glycol‑azido)KFY(8x polyethylene glycol‑amino)[Nle]PKKATELKHLQCLEEELKPLEEVL[hSer]LAQSKNFHLRPRDLISNINVIVLELKGSETTF[hSer]CEYADETATIVEFLNRWITFSQSIISTLT"
